In patent US20230338555A1 (IONIS PHARMACEUTICALS, published 2023):
Where two headings read alike, the source gives them in different places.

Key:
Assay in all cases: cell-based or functional assay
[1] = biological target: T1, human sortilin stably expressed on HEK 293 cells (HEK-SORT1 cells) (human, UniProt Q99523 78-831)
T1 sequence (looked up): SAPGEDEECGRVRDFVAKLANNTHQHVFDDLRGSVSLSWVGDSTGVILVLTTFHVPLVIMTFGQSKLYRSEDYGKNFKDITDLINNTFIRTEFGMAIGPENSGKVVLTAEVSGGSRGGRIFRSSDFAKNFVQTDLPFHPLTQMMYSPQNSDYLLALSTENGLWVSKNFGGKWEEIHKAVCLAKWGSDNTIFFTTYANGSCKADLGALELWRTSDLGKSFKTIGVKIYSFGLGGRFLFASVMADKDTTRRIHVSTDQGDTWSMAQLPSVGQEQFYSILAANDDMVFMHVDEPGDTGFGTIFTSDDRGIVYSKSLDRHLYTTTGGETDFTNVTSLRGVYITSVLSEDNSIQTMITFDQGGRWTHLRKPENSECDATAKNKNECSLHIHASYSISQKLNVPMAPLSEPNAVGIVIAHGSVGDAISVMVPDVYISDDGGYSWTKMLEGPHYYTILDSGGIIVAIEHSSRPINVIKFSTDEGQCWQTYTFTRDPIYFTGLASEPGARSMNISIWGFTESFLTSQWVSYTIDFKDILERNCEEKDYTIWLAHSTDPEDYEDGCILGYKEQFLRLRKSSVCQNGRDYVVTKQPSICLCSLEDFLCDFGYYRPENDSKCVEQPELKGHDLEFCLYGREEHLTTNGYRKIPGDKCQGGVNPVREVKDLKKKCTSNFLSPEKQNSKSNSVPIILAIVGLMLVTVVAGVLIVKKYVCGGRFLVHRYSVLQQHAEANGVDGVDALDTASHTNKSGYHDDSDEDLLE

[2] = biological target: T1, human sortilin stably expressed on HEK …; remark: listed apart in the source
[3] = biological target: T1, human sortilin stably expressed on HEK …; remark: listed apart in the source
[4] = biological target: T1, human sortilin stably expressed on HEK …; remark: listed apart in the source
[5] = biological target: T1, human sortilin stably expressed on HEK …; remark: listed apart in the source
[6] = biological target: T1, human sortilin stably expressed on HEK …; remark: listed apart in the source

B1: Compound No. 1162754, KNT neurotensin peptide conjugated to 20-mer uniform 2'-MOE phosphodiester oligonucleotide with 3'-Cy3 (peptide)
peptide: XLYENKPRRPYIL
modifications: not fully specified; position 1 printed dK (X = 2-azido-acetyl lysine); side chain joined via triazolo-BCN carbamate / 6-aminohexanol linker to the 5' end of oligonucleotide … (SEQ ID NO 2, uniform MOE, phosphodiester, 3'-Cy3)
- Mean Fluorescence Intensity (MFI), uptake 37C-4C, at 12 nM [1]: 67 MFI
- Mean Fluorescence Intensity (MFI), uptake 37C-4C, at 111 nM [1]: 85 MFI
- Mean Fluorescence Intensity (MFI), uptake 37C-4C, at 333 nM [1]: 123 MFI
- Mean Fluorescence Intensity (MFI), uptake 37C-4C, at 1000 nM [1]: 192 MFI
- Mean Fluorescence Intensity (MFI), uptake 37C-4C, at 3000 nM [1]: 427 MFI
- Mean Fluorescence Intensity (MFI), uptake 37C-4C, at 12 nM [2]: 54 MFI
- Mean Fluorescence Intensity (MFI), uptake 37C-4C, at 37 nM [2]: 66 MFI
- Mean Fluorescence Intensity (MFI), uptake 37C-4C, at 111 nM [2]: 101 MFI
- Mean Fluorescence Intensity (MFI), uptake 37C-4C, at 333 nM [2]: 205 MFI
- Mean Fluorescence Intensity (MFI), uptake 37C-4C, at 1000 nM [2]: 370 MFI
- Mean Fluorescence Intensity (MFI), uptake 37C-4C, at 12 nM [3]: 38 MFI
- Mean Fluorescence Intensity (MFI), uptake 37C-4C, at 37 nM [3]: 47 MFI
- Mean Fluorescence Intensity (MFI), uptake 37C-4C, at 333 nM [3]: 143 MFI
- Mean Fluorescence Intensity (MFI), uptake 37C-4C, at 1000 nM [3]: 371 MFI
- Mean Fluorescence Intensity (MFI), uptake 37C-4C, at 12 nM [4]: 43 MFI
- Mean Fluorescence Intensity (MFI), uptake 37C-4C, at 37 nM [4]: 54 MFI
- Mean Fluorescence Intensity (MFI), uptake 37C-4C, at 111 nM [4]: 71 MFI
- Mean Fluorescence Intensity (MFI), uptake 37C-4C, at 333 nM [4]: 171 MFI
- Mean Fluorescence Intensity (MFI), uptake 37C-4C, at 1000 nM [4]: 293 MFI
- Mean Fluorescence Intensity (MFI), uptake 37C-4C, at 12 nM [5]: 43 MFI
- Mean Fluorescence Intensity (MFI), uptake 37C-4C, at 37 nM [5]: 54 MFI
- Mean Fluorescence Intensity (MFI), uptake 37C-4C, at 111 nM [5]: 71 MFI
- Mean Fluorescence Intensity (MFI), uptake 37C-4C, at 333 nM [5]: 171 MFI
- Mean Fluorescence Intensity (MFI), uptake 37C-4C, at 1000 nM [5]: 293 MFI
- Mean Fluorescence Intensity (MFI), uptake 37C-4C, at 7 nM [6]: 43 MFI
- Mean Fluorescence Intensity (MFI), uptake 37C-4C, at 22 nM [6]: 50 MFI
- Mean Fluorescence Intensity (MFI), uptake 37C-4C, at 76 nM [6]: 73 MFI
- Mean Fluorescence Intensity (MFI), uptake 37C-4C, at 260 nM [6]: 145 MFI
- Mean Fluorescence Intensity (MFI), uptake 37C-4C, at 882 nM [6]: 381 MFI
- Mean Fluorescence Intensity (MFI), uptake 37C-4C, at 3000 nM [6]: 1300 MFI
